{"source": "patent US20030050242A1", "about": "“Protein polymerization inhibitors and methods of use” (priority 1999, published 2003)", "key": {"[1]": {"target": "viral capsid protein (p24) of SIV (SIV)"}, "[2]": {"target": "major capsid protein (p24) of HIV-1 (HIV-1) (UniProt P04591)"}, "[3]": {"target": "viral capsid protein (p24) of HIV-2 (HIV-2)"}, "HIV-1 [4]": {"system": "HIV-1", "conditions": "summary of Experiments 1-6", "experimental": "Next, the ability of peptide agents to inhibit viral infection was evaluated. Accordingly, the peptide agents listed in Table 1 were used in several viral (e.g., HIV-1, HIV-2, and SIV) infection assays. […] Once inhibitory tripeptides were identified, more specific assays were conducted to determine the effect of varying concentrations of the selected tripeptides and combination treatments (e.g., the use of more than one modified tripeptide in combination)."}, "HIV-1 [5]": {"system": "HIV-1", "conditions": "100 μM; Experiment 6", "protocol": "The HUT cells were resuspended in 1 ml of RPMI 1640 medium supplemented with 10% (v/v) heat-inactivated fetal bovine serum (FBS, GIBCO), penicillin (100 u/ml), streptomycin (100 u/ml) and Polybrene (Sigma, 2 μg/ml) with or without the presence of the different small peptides (100 μM) mentioned above. Thereafter, the HIV-1 virus was added at 25 TCID50 in a volume of 20 μl. Cells were incubated with the virus at 37° C. for one hour and, subsequently, the cells were pelleted at 170× g for seven minutes. The cells were then washed three times in RPMI medium without peptides at room temperature by cell sedimentation at 170× g for seven minutes, as above. After the final wash, the cells were resuspended in RPMI culture medium in 24-well plate (Costar corporation) and were kept at 37° C. in 5% CO2 with humidity. Culture supernatants were collected when medium was changed at day 4, 7, and 11 post infection and viral p24 production was monitored by using an HIV-1 p24 ELISA kit (Abbott Laboratories, North Chicago, USA)."}, "HIV-1 SF-2 virus": {"system": "HIV-1 SF-2 virus", "experiment": "electron microscopy of HIV-1 particles from infected HUT78 cells", "format": "cell-based", "conditions": "0.5 μM control sample; cells fixed day 14", "experimental": "Evidence that peptide agents inhibit or prevent viral capsid protein polymerization and, thus, proper nucleocapsid assembly was obtained by performing electron microscopy on HIV-1 particles that were contacted with a modified small peptide. In this set of experiments, HUT78 cells were infected with HIV-1 SF-2 virus at 300TCID50 for 1 hr at 37° C. Subsequently, the infected cells were washed and pelleted 3 times. […] GPG-NH2 was then added into the cell cultures 3, 5 or 7 days post infection at concentration of 1 μm or 10 μM. A control sample was administered 0.5 μM Ritonavir (a protease inhibitor). The cells were cultured until day 14, at which point, the cells were fixed in 2.5% glutaraldehyde by conventional means. The fixed cells were then post-fixed in 1% OSO4 and were dehydrated, embedded with epoxy resins, and the blocks were allowed to polymerize. Epon sections of virus infected cells were made approximately 60-80 nm thin in order to accommodate the width of the nucleocapsid. The sections were mounted to grids stained with 1.0% uranyl acetate and were analyzed in a Zeiss CEM 902 microscope at an accelerating voltage of 80 kV. The microscope was equipped with a spectrometer to improve image quality and a liquid nitrogen cooling trap was used to reduce beam damage. The grids having sections of control and GPG-NH2 incubated cells were examined in several blind studies.\n(See FIG. 1). […]"}, "[6]": {"target": "T1, major capsid protein (p24) of HIV-1 (HIV-1, UniProt P04591)", "experiment": "cell-based or functional assay"}, "[7]": {"target": "T1, major capsid protein (p24) of HIV-1", "experiment": "cell-based or functional assay", "remark": "listed apart in the source"}}, "note": "Ends that are not written are not given here. Peptide text beside a SMILES is read from it.", "data": [{"molecule": "GPG-NH2 + CQG-NH2 (pool or library)", "values": [{"measurement": "reverse transcriptase (RT) activity in the supernatants, Day 10 RT (OD)", "setting": "[1]", "value": 0.91, "unit": "OD"}, {"measurement": "reverse transcriptase (RT) activity in the supernatants, Day 10 RT (OD)", "setting": "[2]", "value": 0.397, "unit": "OD"}, {"measurement": "reverse transcriptase (RT) activity in the supernatants, Day 10 RT (OD)", "setting": "[3]", "value": 1.17, "unit": "OD"}]}, {"molecule": "NCCCC[C@H](N)C(=O)N[C@@H](CCC(N)=O)C(=O)NCC(N)=O", "note": "[KQG-NH2, lysyl-glutaminyl-glycine amide] (H-Lys-Gln-Gly-NH2)", "values": [{"measurement": "effect on HIV-1 infection, in words", "setting": "HIV-1 [4]", "value": "inhibited and/or prevented HIV-1 infection"}, {"measurement": "reduction of virus, capsid protein p24 in the supernatant", "setting": "HIV-1 [5]", "value": "~100", "unit": "%"}]}, {"molecule": "CC(C)C[C@H](NC(=O)[C@@H](N)CO)C(=O)NCC(N)=O", "note": "[SLG-NH2, seryl-leucyl-glycine amide] (H-Ser-Leu-Gly-NH2)", "values": [{"measurement": "effect on HIV-1 infection, in words", "setting": "HIV-1 [4]", "value": "inhibited and/or prevented HIV-1 infection"}, {"measurement": "reduction of virus, capsid protein p24 in the supernatant", "setting": "HIV-1 [5]", "value": "~100", "unit": "%"}]}, {"molecule": "C[C@H](N)C(=O)N[C@@H](CO)C(=O)NCC(N)=O", "note": "[ASG-NH2, alanyl-seryl-glycine amide] (H-Ala-Ser-Gly-NH2)", "values": [{"measurement": "effect on HIV-1 infection, in words", "setting": "HIV-1 [4]", "value": "inhibited and/or prevented HIV-1 infection"}, {"measurement": "inhibiting or preventing HIV-1 infection, in words", "setting": "HIV-1 [5]", "value": "less effective"}]}, {"molecule": "C[C@@H](O)[C@H](NC(=O)[C@@H]1CCCN1C(=O)[C@@H](N)CO)C(N)=O", "note": "[SPT-NH2, seryl-prolyl-threonine amide] (H-Ser-Pro-Thr-NH2)", "values": [{"measurement": "effect on HIV-1 infection, in words", "setting": "HIV-1 [4]", "value": "inhibited and/or prevented HIV-1 infection"}, {"measurement": "inhibiting or preventing HIV-1 infection, in words", "setting": "HIV-1 [5]", "value": "less effective"}]}, {"molecule": "CC(C)[C@H](N)C(=O)NCC(=O)NCC(N)=O", "note": "[VGG-NH2, valyl-glycyl-glycine amide] (H-Val-Gly-Gly-NH2)", "values": [{"measurement": "effect on HIV-1 infection, in words", "setting": "HIV-1 [4]", "value": "inhibited and/or prevented HIV-1 infection"}, {"measurement": "inhibiting or preventing HIV-1 infection, in words", "setting": "HIV-1 [5]", "value": "less effective"}]}, {"molecule": "CC(C)C[C@H](NC(=O)[C@H](C)N)C(=O)NCC(N)=O", "note": "[ALG-NH2, alanyl-leucyl-glycine amide] (H-Ala-Leu-Gly-NH2)", "values": [{"measurement": "effect on HIV-1 infection, in words", "setting": "HIV-1 [4]", "value": "inhibited and/or prevented HIV-1 infection"}, {"measurement": "reduction of virus, capsid protein p24 in the supernatant", "setting": "HIV-1 [5]", "value": "~100", "unit": "%"}]}, {"molecule": "N=C(N)NCCC[C@H](N)C(=O)N[C@@H](CCC(N)=O)C(=O)NCC(N)=O", "note": "[RQG-NH2, arginyl-glutaminyl-glycine amide] (H-Arg-Gln-Gly-NH2)", "values": [{"measurement": "effect on HIV-1 infection, in words", "setting": "HIV-1 [4]", "value": "inhibited and/or prevented HIV-1 infection"}, {"measurement": "reduction of virus, capsid protein p24 in the supernatant", "setting": "HIV-1 [5]", "value": "~100", "unit": "%"}]}, {"molecule": "CC(C)[C@H](NC(=O)CN)C(=O)NCC(N)=O", "note": "[GVG-NH2, glycyl-valyl-glycine amide] (H-Gly-Val-Gly-NH2)", "values": [{"measurement": "effect on HIV-1 infection, in words", "setting": "HIV-1 [4]", "value": "inhibited and/or prevented HIV-1 infection"}, {"measurement": "inhibiting or preventing HIV-1 infection, in words", "setting": "HIV-1 [5]", "value": "less effective"}]}, {"molecule": "GKG-NH2 + CQG-NH2 (pool or library)", "values": [{"measurement": "reverse transcriptase (RT) activity in the supernatants, Day 10 RT (OD)", "setting": "[1]", "value": 2.89, "unit": "OD"}, {"measurement": "reverse transcriptase (RT) activity in the supernatants, Day 10 RT (OD)", "setting": "[2]", "value": 1.89, "unit": "OD"}, {"measurement": "reverse transcriptase (RT) activity in the supernatants, Day 10 RT (OD)", "setting": "[3]", "value": 2.8, "unit": "OD"}]}, {"molecule": "CC(C)c1nc(CN(C)C(=O)N[C@H](C(=O)N[C@@H](Cc2ccccc2)C[C@H](O)[C@H](Cc2ccccc2)NC(=O)OCc2cncs2)C(C)C)cs1", "note": "[Ritonavir, reference compound]", "values": [{"measurement": "capsid/nucleocapsid morphology of HIV-1 particles", "setting": "HIV-1 SF-2 virus", "value": "malformed structures that did not have a discernable nucleocapsid"}]}, {"molecule": "GPG-NH2 + GKG-NH2 (pool or library)", "values": [{"measurement": "reverse transcriptase (RT) activity in the supernatants, Day 10 RT (OD)", "setting": "[1]", "value": 0.309, "unit": "OD"}, {"measurement": "reverse transcriptase (RT) activity in the supernatants, Day 10 RT (OD)", "setting": "[2]", "value": 0.164, "unit": "OD"}, {"measurement": "reverse transcriptase (RT) activity in the supernatants, Day 10 RT (OD)", "setting": "[3]", "value": 1.11, "unit": "OD"}]}, {"molecule": "Lys-Ala-Leu-NH2", "note": "[KAL-NH2]", "values": [{"measurement": "reverse transcriptase (RT) activity in the supernatants, Day 10 RT (OD)", "setting": "[6]", "value": 2, "unit": "OD"}]}, {"molecule": "Ser-Pro-Thr-NH2", "note": "[Ser-Pro-Thr-NH2]", "values": [{"measurement": "p24 production of infected HUT78 cells (HIV-1 p24 ELISA), Day 7 HIV-1, reduction (%), peptide at 100 µM", "setting": "[7]", "value": 25, "unit": "%"}]}, {"molecule": "Ala-Leu-Gly-NH2", "note": "[Ala-Leu-Gly-NH2]", "values": [{"measurement": "p24 production of infected HUT78 cells (HIV-1 p24 ELISA), Day 7 HIV-1, reduction (%), peptide at 100 µM", "setting": "[7]", "value": 100, "unit": "%"}]}, {"molecule": "Gly-Ala-Thr-NH2", "note": "[GAT-NH2]", "values": [{"measurement": "reverse transcriptase (RT) activity in the supernatants, Day 10 RT (OD)", "setting": "[6]", "value": 1.56, "unit": "OD"}]}, {"molecule": "Lys-Gln-Gly-NH2", "note": "[Lys-Gln-Gly-NH2]", "values": [{"measurement": "p24 production of infected HUT78 cells (HIV-1 p24 ELISA), Day 7 HIV-1, reduction (%), peptide at 100 µM", "setting": "[7]", "value": 99, "unit": "%"}]}, {"molecule": "His-Lys-Ala-NH2", "note": "[HKA-NH2]", "values": [{"measurement": "reverse transcriptase (RT) activity in the supernatants, Day 10 RT (OD)", "setting": "[6]", "value": 2.55, "unit": "OD"}]}, {"molecule": "Ala-Ser-Gly-NH2", "note": "[Ala-Ser-Gly-NH2]", "values": [{"measurement": "p24 production of infected HUT78 cells (HIV-1 p24 ELISA), Day 7 HIV-1, reduction (%), peptide at 100 µM", "setting": "[7]", "value": 25, "unit": "%"}]}, {"molecule": "Arg-Gln-Gly-NH2", "note": "[Arg-Gln-Gly-NH2]", "values": [{"measurement": "p24 production of infected HUT78 cells (HIV-1 p24 ELISA), Day 7 HIV-1, reduction (%), peptide at 100 µM", "setting": "[7]", "value": 99, "unit": "%"}]}, {"molecule": "Ala-Cys-Gln-NH2", "note": "[ACQ-NH2]", "values": [{"measurement": "reverse transcriptase (RT) activity in the supernatants, Day 10 RT (OD)", "setting": "[6]", "value": 0.904, "unit": "OD"}]}, {"molecule": "Gly-Val-Gly-NH2", "note": "[Gly-Val-Gly-NH2]", "values": [{"measurement": "p24 production of infected HUT78 cells (HIV-1 p24 ELISA), Day 7 HIV-1, reduction (%), peptide at 100 µM", "setting": "[7]", "value": 25, "unit": "%"}]}, {"molecule": "Lys-Ala-Arg-NH2", "note": "[KAR-NH2]", "values": [{"measurement": "reverse transcriptase (RT) activity in the supernatants, Day 10 RT (OD)", "setting": "[6]", "value": 2.78, "unit": "OD"}]}, {"molecule": "Ser-Leu-Gly-NH2", "note": "[Ser-Leu-Gly-NH2]", "values": [{"measurement": "p24 production of infected HUT78 cells (HIV-1 p24 ELISA), Day 7 HIV-1, reduction (%), peptide at 100 µM", "setting": "[7]", "value": 99, "unit": "%"}]}, {"molecule": "Ala-Arg-Val-NH2", "note": "[ARV-NH2]", "values": [{"measurement": "reverse transcriptase (RT) activity in the supernatants, Day 10 RT (OD)", "setting": "[6]", "value": 1.53, "unit": "OD"}]}, {"molecule": "Cys-Gln-Gly-NH2", "note": "[Cys-Gln-Gly-NH2]", "values": [{"measurement": "reverse transcriptase (RT) activity in the supernatants, Day 10 RT (OD)", "setting": "[6]", "value": 0.108, "unit": "OD"}]}, {"molecule": "Val-Gly-Gly-NH2", "note": "[Val-Gly-Gly-NH2]", "values": [{"measurement": "p24 production of infected HUT78 cells (HIV-1 p24 ELISA), Day 7 HIV-1, reduction (%), peptide at 100 µM", "setting": "[7]", "value": 50, "unit": "%"}]}]}
